Target: T1, mast cell carboxypeptidase purified from human skin (human, UniProt P15088 110-417)
T1 construct: also called human skin carboxypeptidase; carboxypeptidase purified from skin
T1 sequence (looked up): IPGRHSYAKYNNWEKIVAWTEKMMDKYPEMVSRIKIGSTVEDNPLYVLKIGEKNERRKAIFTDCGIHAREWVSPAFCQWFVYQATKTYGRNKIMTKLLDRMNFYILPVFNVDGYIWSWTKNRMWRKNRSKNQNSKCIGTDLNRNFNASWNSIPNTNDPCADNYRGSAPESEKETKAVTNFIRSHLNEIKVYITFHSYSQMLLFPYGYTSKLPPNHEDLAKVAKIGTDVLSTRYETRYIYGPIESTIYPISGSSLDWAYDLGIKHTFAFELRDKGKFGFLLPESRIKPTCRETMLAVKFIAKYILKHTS
Assay: affinity chromatography on PCI-agarose
Method: Mast cell carboxypeptidase was purified from finely chopped extracts of human skin (obtained from macroscopically normal tissue at leg amputation) using a method adapted from that of Goldstein et al. (1989, ibid). […] After washing the column, carboxypeptidase was eluted with unconjugated PCI and dialysed to remove the inhibitor. The purity of the enzyme preparation was assessed by SDS-PAGE and silver staining (Pierce, Rockford, Ill., USA). Proteolytic activity was determined by monitoring the cleavage of […] hippuryl-Phe-Arg (Sigma) at 260 nm.

binding result: binds
B1: potato tuber carboxypeptidase inhibitor (other, UniProt P01075 1-39, looked up)
chain: QQHADPICNKPCKTHDDCSGAWFCQACWNSARTCGPYVG
notes: also called PCI
